Target: T1, Translationally-Controlled Tumor Protein (TCTP) (human, UniProt P13693 1-172)
T1 construct: Endogenous TCTP in LNCaP cell lysates, immunoprecipitated with rabbit anti-TCTP antibody (Abcam); also called translationally-controlled tumour protein
T1 sequence: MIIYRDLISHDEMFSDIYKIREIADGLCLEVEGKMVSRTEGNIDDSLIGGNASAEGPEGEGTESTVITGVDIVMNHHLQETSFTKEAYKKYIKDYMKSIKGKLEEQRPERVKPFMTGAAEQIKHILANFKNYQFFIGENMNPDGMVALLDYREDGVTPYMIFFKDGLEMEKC
Assay: not named at this place (co-immunoprecipitation of Example 12)

B1: Hsp27 C1 deletion mutant (amino acids 93 to 205 of SEQ ID NO: 16), histidine-tagged (other, not shown: small tags and cut ends)
chain: DRWRVSLDVNHFAPDERTVKTKDGVVEISGKHEELQDEHGYISRCFTRKYTLPPGVDPTQVSSSLSPEGTLTVEAPMPKLATQSNEITIPVTFESRAQLGGPEAAKSDETAAK
notes: Transiently expressed in LNCaP cells
binding result: binds

Source: patent US20150216891A1 (INSTITUT NATIONAL DE LA SANTE ET DE LA RECHERCHE MEDICALE …, published 2015)
